This note sets out measurements from patent US20260258142A1 (published 2026).

The test addresses Rabbit polyclonal Ab. The test can be described thus: ELISA. For orientation: An ELISA detects its analyte on a solid surface through an enzyme-linked reagent.

B1: phosphorylated HisTAG-ΔPDGFRAaa1-528 (receptor)
chain: QLSLPSILPNENEKVVQLNSSFSLRCFGESEVSWQYPMSEEESSDVEIRNEENNSGLFVTVLEVSSASAAHTGLYTCYYNHTQTEENELEGRHIYIYVPDPDVAFVPLGMTDYLVIVEDDDSAIIPCRTTDPETPVTLHNSEGVVPASYDSRQGFNGTFTVGPYICEATVKGKKFQTIPFNVYALKATSELDLEMEALKTVYKSGETIVVTCAVFNNEVVDLQWTYPGEVKGKGITMLEEIKVPSIKLVYTLTVPEATVKDSGDYECAARQATREVKEMKKVTISVHEKGFIEIKPTFSQLEAVNLHEVKHFVVEVRAYPPPRISWLKNNLTLIENLTEITTDVEKIQEIRYRSKLKLIRAKEEDSGHYTIVAQNEDAVKSYTFELLTQVPSSILDLVDDHHGSTGGQTVRCTAEGTPLPDIEWMICKDIKKCNNETSWTILANNVSNIITEIHSRDRSTVEGRVTFAKVEETIAVRCLAKNLLGAENRELKLVAPTLRSELTVA
modifications: tyrosine-phosphorylated (ectopically, by MAN2A1-FER in HUH7 cells); sites recognised by the antibodies: pY118/pY120, pY342, pY375, pY391
Broadly, the Kd is the concentration at which binding is half-saturated. A low value points to higher affinity. B1 gave a Kd of 18.6 nM.
